B4: 6H–hTFIIEα wild type (full-length hTFIIEα) (natural protein)
chain: MADPDVLTEVPAALKRLAKYVIRGFYGIEHALALDILIRNSCVKEEDMLELLKFDRKQLRSVLNNLKGDKFIKCRMRVETAADGKTTRHNYYFINYRTLVNVVKYKLDHMRRRIETDERDSTNRASFKCPVCSSTFTDLEANQLFDPMTGTFRCTFCHTEVEEDESAMPKKDARTLLARFNEQIEPIYALLRETEDVNLAYEILEPEPTEIPALKQSKDHAATTAGAASLAGGHHREAWATKGPSYEDLYTQNVVINMDDQEDLHRASLEGKSAKERPIWLRESTVQGAYGSEDMKEGGIDMDAFQEREEGHAGPDDNEEVMRALLIHEKKTSSAMAGSVGAAAPVTAANGSDSESETSESDDDSPPRPAAVAVHKREEDEEEDDEFEEVADDPIVMVAGRPFSYSEVSQRPELVAQMTPEEKEAYIAMGQRMFEDLFE

Assay [1] deals with T1, hTFIIH p62 PH-D (pleckstrin homology domain of the p62 subunit of human TFIIH) (human, UniProt P32780 1-108).
T1 sequence: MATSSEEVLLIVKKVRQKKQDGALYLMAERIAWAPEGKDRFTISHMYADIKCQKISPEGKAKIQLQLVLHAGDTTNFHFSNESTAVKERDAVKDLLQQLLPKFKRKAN
The experiment in a line: NMR titration.

For assay [2], the target named is full-length GST–p62(1−548) (human, UniProt P32780 1-548). Nature of the assay: pull-down.
Assay [3] has as its target B4. The experiment in a line: pull-down.
The target of assay [4] is B4. The experiment in a line: pull-down. The source holds these as a separate data set.

Results on 8 molecules are retold here after article PMC2275666 (The EMBO Journal, 2008).

Several values for one entry are separate records, joined by “and”; a condition that tells them apart may be missing. Equal entries are not always repeated. Where two headings read alike, the source gives them in different places.

Usually Kd stands for the equilibrium constant for the complex coming apart. Low readings indicate higher affinity, high ones lower affinity.

B1: hTFIIEα AC-D(381−394) peptide (N-terminal tail only) (peptide)
peptide: EEEDDEFEEVADDP
Consider B1, for which the Kd in assay [1] was 2120 ± 192 nM.

B2: hTFIIEα(351−439) (longer construct with STDE and acidic regions, NMR titration) (domain or fragment)
chain: GSDSESETSESDDDSPPRPAAVAVHKREEDEEEDDEFEEVADDPIVMVAGRPFSYSEVSQRPELVAQMTPEEKEAYIAMGQRMFEDLFE
B2 came in with a Kd in assay [1] of 400 ± 43 nM.

B3: hTFIIEα AC-D (C-terminal acidic domain of the human TFIIEα subunit, residues 378–439) (domain or fragment)
chain: EEDEEEDDEFEEVADDPIVMVAGRPFSYSEVSQRPELVAQMTPEEKEAYIAMGQRMFEDLFE
In the case of B3, in assay [1], the Kd is 376 nM and 237 nM. With B4, the binding result in assay [2] is given as “binds”.

B5: GST–p62(1−238) (domain or fragment)
chain: not shown
Take B5: the binding result in assay [3] is given as “binds”.

B6: GST–p62(1−333) (domain or fragment)
chain: not shown
As for B6, the binding result in assay [3] is “binds”.

B7: GST–p62(1−108) (GST-tagged p62 PH-D) (domain or fragment)
chain: MATSSEEVLLIVKKVRQKKQDGALYLMAERIAWAPEGKDRFTISHMYADIKCQKISPEGKAKIQLQLVLHAGDTTNFHFSNESTAVKERDAVKDLLQQLLPKFKRKAN
As to B7, in assay [3], the binding result is “binds”.

B8: FLAG-tagged hTFIIH p62 PH-D, wild type (domain or fragment)
chain: MATSSEEVLLIVKKVRQKKQDGALYLMAERIAWAPEGKDRFTISHMYADIKCQKISPEGKAKIQLQLVLHAGDTTNFHFSNESTAVKERDAVKDLLQQLLPKFKRKAN
Take B8: in assay [4], the binding result is recorded as “binds”.
